The text below walks through data of patent US20030108916.

Data set [1] concerns the target GST-Xchk1(347-374) S365A (UniProt Q6DE87).
Data set [2] has as its target GST-Xchk1(347-374), wildtype peptide fragment (UniProt Q6DE87).
In data set [3] the test system is PHAS-I (model substrate protein).
Data set [4] addresses GST-Xchk1-N135A-4AQ (bacterially expressed) (UniProt Q6DE87).
The target of data set [5] is GST-Xchk1(347-374) S356A (UniProt Q6DE87).
The target in data set [6] is GST-Xchk1-N135A (kinase inactive Xchk1 mutant, bacterially expressed) (UniProt Q6DE87).
GST-Xchk1-N135A (kinase inactive Xchk1 mutant, bacterially expressed), sequence (Q6DE87 whole entry N135A, looked up, the tested form may be a part): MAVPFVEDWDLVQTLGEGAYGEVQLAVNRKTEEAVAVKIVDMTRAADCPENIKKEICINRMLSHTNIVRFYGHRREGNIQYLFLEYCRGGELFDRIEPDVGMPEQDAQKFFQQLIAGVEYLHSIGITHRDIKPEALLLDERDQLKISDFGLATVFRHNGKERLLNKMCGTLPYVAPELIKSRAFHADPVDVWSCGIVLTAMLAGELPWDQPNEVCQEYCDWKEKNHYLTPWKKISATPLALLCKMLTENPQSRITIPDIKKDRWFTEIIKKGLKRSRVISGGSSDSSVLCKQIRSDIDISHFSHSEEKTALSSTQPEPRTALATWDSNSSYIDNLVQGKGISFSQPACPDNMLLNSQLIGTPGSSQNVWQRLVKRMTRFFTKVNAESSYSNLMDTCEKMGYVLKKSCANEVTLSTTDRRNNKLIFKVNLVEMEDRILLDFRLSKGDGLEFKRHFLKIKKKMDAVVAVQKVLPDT
Data set [7] addresses GST-Xchk1(306-352), wild type peptide fragment (UniProt Q6DE87).
Data set [8] deals with GST-Xchk1(306-352) T314A (UniProt Q6DE87).
GST-Xchk1(306-352) T314A, sequence (Q6DE87 whole entry T314A, looked up, tested part not stated): as the sequence (Q6DE87 whole entry N135A, looked up, the tested form may be a part) above, with A135N, T314A counted along it
In data set [9] the target is GST-Xchk1(306-352) S344A (UniProt Q6DE87).
GST-Xchk1(306-352) S344A, sequence (Q6DE87 whole entry S344A, looked up, tested part not stated): as the sequence (Q6DE87 whole entry N135A, looked up, the tested form may be a part) above, with A135N, S344A counted along it
The target of data set [10] is GST-Xchk1(347-374) S365A+S356A (UniProt Q6DE87).
GST-Xchk1(347-374) S365A+S356A, sequence (Q6DE87 whole entry S356A/S365A, looked up, tested part not stated): as the sequence (Q6DE87 whole entry N135A, looked up, the tested form may be a part) above, with A135N, S356A, S365A counted along it
Data set [11] concerns the target GST-Xchk1(306-352) S344A+T314A (UniProt Q6DE87).

Wildtype human Flag-tagged ATR isolated from 293T cells, sequence (chain, as listed by the source): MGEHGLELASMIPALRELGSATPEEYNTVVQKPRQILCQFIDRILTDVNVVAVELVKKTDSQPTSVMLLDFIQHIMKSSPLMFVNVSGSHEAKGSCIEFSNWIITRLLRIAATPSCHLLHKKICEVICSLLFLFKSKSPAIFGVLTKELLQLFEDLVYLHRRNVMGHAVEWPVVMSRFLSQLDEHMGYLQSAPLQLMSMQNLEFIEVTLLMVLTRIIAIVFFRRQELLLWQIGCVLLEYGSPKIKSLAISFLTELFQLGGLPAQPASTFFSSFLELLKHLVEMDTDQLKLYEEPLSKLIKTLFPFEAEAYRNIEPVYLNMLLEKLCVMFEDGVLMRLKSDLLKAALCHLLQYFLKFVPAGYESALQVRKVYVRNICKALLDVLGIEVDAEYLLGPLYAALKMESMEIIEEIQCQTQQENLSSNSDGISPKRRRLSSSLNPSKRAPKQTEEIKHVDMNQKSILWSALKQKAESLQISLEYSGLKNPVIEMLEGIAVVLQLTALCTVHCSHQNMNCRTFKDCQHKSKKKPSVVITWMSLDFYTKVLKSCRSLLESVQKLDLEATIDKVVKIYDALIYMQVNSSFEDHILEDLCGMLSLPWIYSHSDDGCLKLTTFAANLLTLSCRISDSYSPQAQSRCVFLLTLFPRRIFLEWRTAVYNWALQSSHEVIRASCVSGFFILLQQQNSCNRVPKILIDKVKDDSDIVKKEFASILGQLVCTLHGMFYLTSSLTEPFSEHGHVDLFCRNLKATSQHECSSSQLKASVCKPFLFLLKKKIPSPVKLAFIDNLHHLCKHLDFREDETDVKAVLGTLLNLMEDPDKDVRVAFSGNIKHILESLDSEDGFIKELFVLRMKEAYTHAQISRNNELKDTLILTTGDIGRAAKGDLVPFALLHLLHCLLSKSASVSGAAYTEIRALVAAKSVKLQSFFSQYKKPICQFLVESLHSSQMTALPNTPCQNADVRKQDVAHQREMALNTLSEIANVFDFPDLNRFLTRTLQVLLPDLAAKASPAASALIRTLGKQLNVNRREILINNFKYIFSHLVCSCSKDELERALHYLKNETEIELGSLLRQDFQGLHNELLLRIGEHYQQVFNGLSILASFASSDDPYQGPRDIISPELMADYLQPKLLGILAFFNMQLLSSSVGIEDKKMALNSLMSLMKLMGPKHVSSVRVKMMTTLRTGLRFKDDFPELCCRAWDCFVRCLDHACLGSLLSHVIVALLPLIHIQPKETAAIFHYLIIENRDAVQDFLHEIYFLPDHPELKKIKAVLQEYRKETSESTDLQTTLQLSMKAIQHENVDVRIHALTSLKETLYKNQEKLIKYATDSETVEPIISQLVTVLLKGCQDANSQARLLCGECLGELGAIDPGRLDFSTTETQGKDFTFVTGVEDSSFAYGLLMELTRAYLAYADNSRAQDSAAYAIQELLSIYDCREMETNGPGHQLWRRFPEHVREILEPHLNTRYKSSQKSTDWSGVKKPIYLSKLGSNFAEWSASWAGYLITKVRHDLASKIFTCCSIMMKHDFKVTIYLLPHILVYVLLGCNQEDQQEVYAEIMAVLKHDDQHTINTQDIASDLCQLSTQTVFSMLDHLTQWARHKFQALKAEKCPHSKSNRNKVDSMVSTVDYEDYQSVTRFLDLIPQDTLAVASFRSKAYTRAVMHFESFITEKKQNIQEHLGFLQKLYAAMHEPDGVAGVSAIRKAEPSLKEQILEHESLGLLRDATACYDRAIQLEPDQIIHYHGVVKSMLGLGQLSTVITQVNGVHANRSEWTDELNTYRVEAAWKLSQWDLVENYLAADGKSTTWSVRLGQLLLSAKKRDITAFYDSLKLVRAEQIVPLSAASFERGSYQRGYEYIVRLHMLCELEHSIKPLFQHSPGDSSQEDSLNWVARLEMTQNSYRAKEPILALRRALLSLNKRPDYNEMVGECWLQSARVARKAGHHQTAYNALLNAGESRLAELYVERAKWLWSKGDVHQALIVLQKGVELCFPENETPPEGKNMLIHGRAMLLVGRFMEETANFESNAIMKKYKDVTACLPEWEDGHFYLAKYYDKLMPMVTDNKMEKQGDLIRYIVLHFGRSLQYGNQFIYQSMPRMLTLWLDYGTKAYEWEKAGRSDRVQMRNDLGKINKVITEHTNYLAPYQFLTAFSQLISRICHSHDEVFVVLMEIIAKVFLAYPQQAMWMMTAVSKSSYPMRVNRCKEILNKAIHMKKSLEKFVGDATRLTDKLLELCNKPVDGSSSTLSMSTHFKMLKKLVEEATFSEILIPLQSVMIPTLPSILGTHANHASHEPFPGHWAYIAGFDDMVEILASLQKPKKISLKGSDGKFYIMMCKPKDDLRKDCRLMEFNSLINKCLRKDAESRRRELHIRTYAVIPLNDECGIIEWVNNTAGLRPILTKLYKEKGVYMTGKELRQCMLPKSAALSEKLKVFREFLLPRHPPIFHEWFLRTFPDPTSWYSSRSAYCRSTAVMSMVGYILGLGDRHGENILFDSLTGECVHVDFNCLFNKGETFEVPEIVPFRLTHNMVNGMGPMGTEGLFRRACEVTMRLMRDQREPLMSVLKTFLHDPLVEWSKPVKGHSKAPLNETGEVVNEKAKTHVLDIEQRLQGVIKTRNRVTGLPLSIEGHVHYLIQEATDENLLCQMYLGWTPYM
GST-Xchk1(306-352) S344A+T314A, sequence (Q6DE87 whole entry T314A/S344A, looked up, tested part not stated): as the sequence (Q6DE87 whole entry N135A, looked up, the tested form may be a part) above, with A135N, T314A, S344A counted along it
GST-Xchk1(347-374), wildtype peptide fragment, sequence (Q6DE87 347-374): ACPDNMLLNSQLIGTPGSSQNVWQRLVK
GST-Xchk1(347-374) S365A, sequence (Q6DE87 whole entry S365A, looked up, the tested form may be a part): as the sequence (Q6DE87 whole entry N135A, looked up, the tested form may be a part) above, with A135N, S365A counted along it
GST-Xchk1(347-374) S356A, sequence (Q6DE87 whole entry S356A, looked up, tested part not stated): as the sequence (Q6DE87 whole entry N135A, looked up, the tested form may be a part) above, with A135N, S356A counted along it
GST-Xchk1(306-352), wild type peptide fragment, sequence (Q6DE87 306-352): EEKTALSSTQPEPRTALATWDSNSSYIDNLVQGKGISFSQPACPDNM
GST-Xchk1-N135A-4AQ (bacterially expressed), sequence (Q6DE87 whole entry N135A, looked up): as the sequence (Q6DE87 whole entry N135A, looked up, the tested form may be a part) above

Consider “Xenopus laevis ATR (Xatr), endogenous protein in Xenopus egg extracts”, for which the “in vitro phosphorylation of Xchk1 peptides” value in data set [1] was “Xatr phosphorylated Xchk1 when a single SQ or TQ site is mutated although the level of phosphorylation is significantly reduced in comparison to that observed with wildtype peptide”; in [2], “Xatr phosphorylated both of the wildtype peptide fragments (lanes 1 and 5-top panel)”; in [5] it was “Xatr phosphorylated Xchk1 when a single SQ or TQ site is mutated although the level of phosphorylation is significantly reduced in comparison to that observed with wildtype peptide”; in data set [7], “Xatr phosphorylated both of the wildtype peptide fragments (lanes 1 and 5-top panel)”; in [8] it was “Xatr phosphorylated Xchk1 when a single SQ or TQ site is mutated although the level of phosphorylation is significantly reduced in comparison to that observed with wildtype peptide”; in data set [9], “Xatr phosphorylated Xchk1 when a single SQ or TQ site is mutated although the level of phosphorylation is significantly reduced in comparison to that observed with wildtype peptide”. For the same substance, the “in vitro phosphorylation of Xchk1 peptides” value in [10] was “mutation of both sites within each peptide (S365A+S356A or S344A+T314A) abolished phosphorylation by Xatr (lanes 4 and 8)”; in data set [11], “mutation of both sites within each peptide (S365A+S356A or S344A+T314A) abolished phosphorylation by Xatr (lanes 4 and 8)”. Further, the “phosphorylation of PHAS-I (in vitro kinase assay, autoradiography)” value in [3] is “these immunoprecipitates phosphorylated a model substrate protein (PHAS-I) in vitro”. In addition, the “in vitro phosphorylation (32P-ATP, autoradiography)” value is “the resulting mutant (GST-Xchk1-N135A-4AQ) was not phosphorylated by Xatr (lane 4)” in [4] and “Xatr phosphorylates Xchk1 in vitro (compare lane 5 to lane 6)” in data set [6].

On to “Wildtype human Flag-tagged ATR isolated from 293T cells”, for which the “in vitro phosphorylation of Xchk1 peptides” value was “human ATR phosphorylated each of the single point mutant Chk1 substrates (S365A, S356A, S344A and T314A); the level of phosphorylation of the single mutant forms of Xchk1 by human ATR is also reduced” in data set [1]; “Wildtype human ATR phosphorylated the wildtype XChk1 peptides Xchk1 (306-352) and Xchk1(347-374)” in data set [2]; “human ATR phosphorylated each of the single point mutant Chk1 substrates (S365A, S356A, S344A and T314A); the level of phosphorylation of the single mutant forms of Xchk1 by human ATR is also reduced” in [5]; “Wildtype human ATR phosphorylated the wildtype XChk1 peptides Xchk1 (306-352) and Xchk1(347-374)” in data set [7]; “human ATR phosphorylated each of the single point mutant Chk1 substrates (S365A, S356A, S344A and T314A); the level of phosphorylation of the single mutant forms of Xchk1 by human ATR is also reduced” in data set [8]; “human ATR phosphorylated each of the single point mutant Chk1 substrates (S365A, S356A, S344A and T314A); the level of phosphorylation of the single mutant forms of Xchk1 by human ATR is also reduced” in data set [9]. Also, the “in vitro phosphorylation of Xchk1 peptides” value in data set [10] was “human ATR does not phosphorylate the double mutant XChk1 substrates (S365A+S356A or S344A+T314A-as shown in lanes 4 and 12)”; in data set [11] it was “human ATR does not phosphorylate the double mutant XChk1 substrates (S365A+S356A or S344A+T314A-as shown in lanes 4 and 12)”.
